Where no end group is shown, it is not given here.
Molecular target: T1, FRQ-interacting RNA Helicase (FRH), a.a. 100-1106, with 6x His-tag (N. crassa, UniProt Q1K502 100-1106)
T1 construct: The preparation was only about 30% FRH; the other proteins were left in on purpose; also called FRHΔ100; E. coli expressed FRH; source: E. coli BL21 (DE3), Ni-NTA eluate, de-salted and buffer-exchanged to PBS (~30% FRH by Coomassie gel); not shown: His6, N-terminal, kept
T1 sequence (looked up): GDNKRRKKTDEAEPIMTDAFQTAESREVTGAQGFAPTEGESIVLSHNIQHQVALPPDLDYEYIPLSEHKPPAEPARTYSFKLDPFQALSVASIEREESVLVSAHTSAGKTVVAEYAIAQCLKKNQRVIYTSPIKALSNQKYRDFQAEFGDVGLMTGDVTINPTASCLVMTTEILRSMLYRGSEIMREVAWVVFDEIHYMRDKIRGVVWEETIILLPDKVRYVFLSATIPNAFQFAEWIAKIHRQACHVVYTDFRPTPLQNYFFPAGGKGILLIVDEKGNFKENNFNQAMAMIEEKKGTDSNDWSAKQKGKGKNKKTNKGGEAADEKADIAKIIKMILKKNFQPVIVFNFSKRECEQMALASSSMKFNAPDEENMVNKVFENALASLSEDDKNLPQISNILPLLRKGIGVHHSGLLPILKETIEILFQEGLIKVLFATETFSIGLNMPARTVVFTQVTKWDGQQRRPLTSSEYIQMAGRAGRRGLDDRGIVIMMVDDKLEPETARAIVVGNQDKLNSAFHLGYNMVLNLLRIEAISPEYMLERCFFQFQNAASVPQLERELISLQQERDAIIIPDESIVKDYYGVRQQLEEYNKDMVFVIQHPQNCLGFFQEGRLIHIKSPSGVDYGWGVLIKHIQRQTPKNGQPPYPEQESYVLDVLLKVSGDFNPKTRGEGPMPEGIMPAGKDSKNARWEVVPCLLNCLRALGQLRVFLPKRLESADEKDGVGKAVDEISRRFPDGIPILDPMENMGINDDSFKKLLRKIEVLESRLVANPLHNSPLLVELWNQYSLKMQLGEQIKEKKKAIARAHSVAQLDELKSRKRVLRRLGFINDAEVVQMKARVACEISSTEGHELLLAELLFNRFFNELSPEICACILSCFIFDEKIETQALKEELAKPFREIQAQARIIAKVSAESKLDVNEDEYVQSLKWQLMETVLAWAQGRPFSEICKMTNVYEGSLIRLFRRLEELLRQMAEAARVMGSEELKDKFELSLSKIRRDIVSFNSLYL
Assay: peptide or protein array; LOCATE Library II: rationally designed FRQ peptides (parents, scrambles, truncations, substitutions) spotted on slides; ~100 nM FRH in solution, room temperature, PBS pH 7.0; read with anti-His and chemiluminescence; FRH preparation ~30% pure
Details: both partners purified

B1: FRQ peptide MTDKEKKKLVVRRLE (near the FCD-1 region) (peptide)
peptide: Ac-MTDKEKKKLVVRRLE
notes: Made from C- to N-terminus on cellulose; printed as a peptide-cellulose stock; source: synthetic peptide (Fmoc, on cellulose disks, spotted on nitrocellulose-coated slides)
binding result: binds
